In publication PMC3081598 (Journal of the American Chemical Society, 2011):

Legend:
Test in all cases: fluorescence polarisation
[1] = target: GLhelix-4, redesigned RGS14 GoLoco motif peptide (UniProt O08773)
[2] = target: GLhelix-4 with Trp 534 mutated to alanine (UniProt O08773)
[3] = target: heterotrimeric G-protein alpha subunit Gαi1 in its inactive, GDP-complexed state (UniProt P63096 30-354)
heterotrimeric G-protein alpha subunit Gαi1 in its inactive, GDP-complexed state (UniProt P63096 30-354), sequence (P63096 30-354, one chain of several): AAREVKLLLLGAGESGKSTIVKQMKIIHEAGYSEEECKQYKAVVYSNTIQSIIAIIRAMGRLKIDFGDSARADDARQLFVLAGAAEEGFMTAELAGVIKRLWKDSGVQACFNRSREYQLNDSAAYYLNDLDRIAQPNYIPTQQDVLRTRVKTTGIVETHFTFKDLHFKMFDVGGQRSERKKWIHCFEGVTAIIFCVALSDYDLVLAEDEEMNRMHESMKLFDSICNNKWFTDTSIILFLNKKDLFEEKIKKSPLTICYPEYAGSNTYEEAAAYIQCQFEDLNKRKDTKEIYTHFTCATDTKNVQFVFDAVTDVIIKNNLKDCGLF

heterotrimeric G-protein alpha subunit Gαi1 in its inactive, GDP-complexed state (from UniProt P63096 30-354) (natural protein), sequence (P63096 30-354, one chain of several): as above

Kd [1] [nM] | Kd [2] [nM] | Kd [3] [nM] | Molecule
810 | 1400 |  | heterotrimeric G-protein alpha subunit Gαi1 in its inactive, GDP-complexed state (from UniProt P63096 30-354) (natural protein)
 |  | 95 | DIEGLVELLNRVQSSGAHDQRGLLRKEDLVLPEFLQ [RGS14 GoLoco motif peptide (wildtype, 36 residues)]
